B1: Tsa1 (wild type) [S. cerevisiae] / HA-tagged Pyk1 (HA-Pyk1) [S. cerevisiae] (parent)
chain 1: MVAQVQKQAPTFKKTAVVDGVFDEVSLDKYKGKYVVLAFIPLAFTFVCPTEIIAFSEAAKKFEEQGAQVLFASTDSEYSLLAWTNIPRKEGGLGPINIPLLADTNHSLSRDYGVLIEEEGVALRGLFIIDPKGVIRHITINDLPVGRNVDEALRLVEAFQWTDKNGTVLPCNWTPGAATIKPTVEDSKEYFEAANK
chain 2: MSRLERLTSLNVVAGSDLRRTSIIGTIGPKTNNPETLVALRKAGLNIVRMNFSHGSYEYHKSVIDNARKSEELYPGRPLAIALDTKGPEIRTGTTTNDVDYPIPPNHEMIFTTDDKYAKACDDKIMYVDYKNITKVISAGRIIYVDDGVLSFQVLEVVDDKTLKVKALNAGKICSHKGVNLPGTDVDLPALSEKDKEDLRFGVKNGVHMVFASFIRTANDVLTIREVLGEQGKDVKIIVKIENQQGVNNFDEILKVTDGVMVARGDLGIEIPAPEVLAVQKKLIAKSNLAGKPVICATQMLESMTYNPRPTRAEVSDVGNAILDGADCVMLSGETAKGNYPINAVTTMAETAVIAEQAIAYLPNYDDMRNCTPKPTSTTETVAASAVAAVFEQKAKAIIVLSTSGTTPRLVSKYRPNCPIILVTRCPRAARFSHLYRGVFPFVFEKEPVSDWTDDVEARINFGIEKAKEFGILKKGDTYVSIQGFKAGAGHSNTLQVSTV

Variants of: B1
Assay: pull-down (co-IP with anti-HA beads, anti-Tsa1 immunoblot, band quantification)
Conditions: +DTT, lane 9, lysate 67 μg/lane and 111 μg/lane for HA-Pyk1 and Tsa1, parent: 1

Row | ratio to parent | Variant
1 | 0.5 | chain 1 C48T C171T

Same assay, conditions: +DTT, lane 9, lysate 67 μg/lane and 111 μg/lane for HA-Pyk1 and Tsa1, parent: 3.1

Row | screen value (% of Total Tsa1) | Variant
2 | 1.3 | chain 1 C48T C171T

From publication PMC5025857, “Redox-dependent Regulation of Gluconeogenesis by a Novel Mechanism Mediated by a Peroxidatic Cysteine of Peroxiredoxin” (Scientific Reports, 2016)
